Reference: PMC8930625 (Journal of inorganic biochemistry, 2022)

B1: Methyl-Coenzyme M Reductase (MCR) chain B (natural protein, Methanothermobacter marburgensis, UniProt P11560 1-443, looked up)
chain: MAKFEDKVDLYDDRGNLVEEQVPLEALSPLRNPAIKSIVQGIKRTVAVNLEGIENALKTAKVGGPACKIMGRELDLDIVGNAESIAAAAKEMIQVTEDDDTNVELLGGGKRALVQVPSARFDVAAEYSAAPLVTATAFVQAIINEFDVSMYDANMVKAAVLGRYPQSVEYMGANIATMLDIPQKLEGPGYALRNIMVNHVVAATLKNTLQAAALSTILEQTAMFEMGDAVGAFERMHLLGLAYQGMNADNLVFDLVKANGKEGTVGSVIADLVERALEDGVIKVEKELTDYKVYGTDDLAMWNAYAAAGLMAATMVNQGAARAAQGVSSTLLYYNDLIEFETGLPSVDFGKVEGTAVGFSFFSHSIYGGGGPGIFNGNHIVTRHSKGFAIPCVAAAMALDAGTQMFSPEATSGLIKEVFSQVDEFREPLKYVVEAAAEIKNEI

Legend:
Experiment in all cases: crystal structure
[1] = target: T1, Methyl-Coenzyme M Reductase (MCR) chain A (Methanothermobacter marburgensis, UniProt P11558 1-550)
T1 sequence (looked up): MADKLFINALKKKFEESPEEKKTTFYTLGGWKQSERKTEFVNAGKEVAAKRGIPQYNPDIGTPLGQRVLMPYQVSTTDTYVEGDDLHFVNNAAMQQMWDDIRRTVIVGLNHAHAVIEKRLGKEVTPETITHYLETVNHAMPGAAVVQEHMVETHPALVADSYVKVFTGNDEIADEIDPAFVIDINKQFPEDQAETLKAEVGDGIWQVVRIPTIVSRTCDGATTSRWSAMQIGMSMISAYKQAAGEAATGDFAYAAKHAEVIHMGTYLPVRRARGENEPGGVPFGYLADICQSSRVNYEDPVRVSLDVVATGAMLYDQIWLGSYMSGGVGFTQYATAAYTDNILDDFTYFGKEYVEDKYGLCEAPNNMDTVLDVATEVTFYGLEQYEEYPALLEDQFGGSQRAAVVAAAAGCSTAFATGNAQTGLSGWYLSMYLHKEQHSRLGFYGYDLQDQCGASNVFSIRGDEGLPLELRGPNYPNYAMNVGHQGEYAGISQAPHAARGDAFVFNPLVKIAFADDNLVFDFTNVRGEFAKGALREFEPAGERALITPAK

crystal structure = target: the molecule itself
[2] = target: B1

Binder: B1
- binding result [1]: binds

B2: Methyl-Coenzyme M Reductase (MCR) heterotrimer of chains A, B and C, MCRred1-silent Ni(II) form (complex, Methanothermobacter marburgensis)
chain 1: MADKLFINALKKKFEESPEEKKTTFYTLGGWKQSERKTEFVNAGKEVAAKRGIPQYNPDIGTPLGQRVLMPYQVSTTDTYVEGDDLHFVNNAAMQQMWDDIRRTVIVGLNHAHAVIEKRLGKEVTPETITHYLETVNHAMPGAAVVQEHMVETHPALVADSYVKVFTGNDEIADEIDPAFVIDINKQFPEDQAETLKAEVGDGIWQVVRIPTIVSRTCDGATTSRWSAMQIGMSMISAYKQAAGEAATGDFAYAAKHAEVIHMGTYLPVRRARGENEPGGVPFGYLADICQSSRVNYEDPVRVSLDVVATGAMLYDQIWLGSYMSGGVGFTQYATAAYTDNILDDFTYFGKEYVEDKYGLCEAPNNMDTVLDVATEVTFYGLEQYEEYPALLEDQFGGSQRAAVVAAAAGCSTAFATGNAQTGLSGWYLSMYLHKEQHSRLGFYGYDLQDQCGASNVFSIRGDEGLPLELRGPNYPNYAMNVGHQGEYAGISQAPHAARGDAFVFNPLVKIAFADDNLVFDFTNVRGEFAKGALREFEPAGERALITPAK
chain 2: MAKFEDKVDLYDDRGNLVEEQVPLEALSPLRNPAIKSIVQGIKRTVAVNLEGIENALKTAKVGGPACKIMGRELDLDIVGNAESIAAAAKEMIQVTEDDDTNVELLGGGKRALVQVPSARFDVAAEYSAAPLVTATAFVQAIINEFDVSMYDANMVKAAVLGRYPQSVEYMGANIATMLDIPQKLEGPGYALRNIMVNHVVAATLKNTLQAAALSTILEQTAMFEMGDAVGAFERMHLLGLAYQGMNADNLVFDLVKANGKEGTVGSVIADLVERALEDGVIKVEKELTDYKVYGTDDLAMWNAYAAAGLMAATMVNQGAARAAQGVSSTLLYYNDLIEFETGLPSVDFGKVEGTAVGFSFFSHSIYGGGGPGIFNGNHIVTRHSKGFAIPCVAAAMALDAGTQMFSPEATSGLIKEVFSQVDEFREPLKYVVEAAAEIKNEI
chain 3: MAQYYPGTTKVAQNRRNFCNPEYELEKLREISDEDVVKILGHRAPGEEYPSVHPPLEEMDEPEDAIREMVEPIDGAKAGDRVRYIQFTDSMYFAPAQPYVRSRAYLCRYRGADAGTLSGRQIIETRERDLEKISKELLETEFFDPARSGVRGKSVHGHSLRLDEDGMMFDMLRRQIYNKDTGRVEMVKNQIGDELDEPVDLGEPLDEETLMEKTTIYRVDGEAYRDDVEAVEIMQRIHVLRSQGGFNLE
- stoichiometry N (crystal structure): 2

B3: Methyl-Coenzyme M Reductase (MCR) chain C (natural protein, Methanothermobacter marburgensis, UniProt P11562 1-249, looked up)
chain: MAQYYPGTTKVAQNRRNFCNPEYELEKLREISDEDVVKILGHRAPGEEYPSVHPPLEEMDEPEDAIREMVEPIDGAKAGDRVRYIQFTDSMYFAPAQPYVRSRAYLCRYRGADAGTLSGRQIIETRERDLEKISKELLETEFFDPARSGVRGKSVHGHSLRLDEDGMMFDMLRRQIYNKDTGRVEMVKNQIGDELDEPVDLGEPLDEETLMEKTTIYRVDGEAYRDDVEAVEIMQRIHVLRSQGGFNLE
- binding result [2]: binds
- binding result [1]: binds
